Sequences and labels used below:
B1: SEQ ID NO: 128 (peptide)
peptide: H[Aib]EGTFTSDPSYLLEGAALQRFIQWLV-NH2
modifications: N-terminus assumed
SMILES: CC[C@H](C)[C@H](NC(=O)[C@H](Cc1ccccc1)NC(=O)[C@H](CCCNC(=N)N)NC(=O)[C@H](CCC(N)=O)NC(=O)[C@H](CC(C)C)NC(=O)[C@H](C)NC(=O)[C@H](C)NC(=O)CNC(=O)[C@H](CCC(=O)O)NC(=O)[C@H](CC(C)C)NC(=O)[C@H](CC(C)C)NC(=O)[C@H](Cc1ccc(O)cc1)NC(=O)[C@H](CO)NC(=O)[C@@H]1CCCN1C(=O)[C@H](CC(=O)O)NC(=O)[C@H](CO)NC(=O)[C@@H](NC(=O)[C@H](Cc1ccccc1)NC(=O)[C@@H](NC(=O)CNC(=O)[C@H](CCC(=O)O)NC(=O)C(C)(C)NC(=O)[C@@H](N)Cc1c[nH]cn1)[C@@H](C)O)[C@@H](C)O)C(=O)N[C@@H](CCC(N)=O)C(=O)N[C@@H](Cc1c[nH]c2ccccc12)C(=O)N[C@@H](CC(C)C)C(=O)N[C@H](C(N)=O)C(C)C
B2: SEQ ID NO: 141 (peptide)
peptide: H[Aib]EGTFTSDVSYLKEEA[Aib]LQRYLEHLV-NH2
modifications: not fully specified (residue 14); also: K14 lipidated with C20DA[γE][OEG][OEG]- or C18DA[γE][OEG][OEG]-
B3: SEQ ID NO: 129 (peptide)
peptide: H[Aib]EGTFTSDPSVLLEGAALQRFIQWLV-NH2
modifications: N-terminus assumed
SMILES: CC[C@H](C)[C@H](NC(=O)[C@H](Cc1ccccc1)NC(=O)[C@H](CCCNC(=N)N)NC(=O)[C@H](CCC(N)=O)NC(=O)[C@H](CC(C)C)NC(=O)[C@H](C)NC(=O)[C@H](C)NC(=O)CNC(=O)[C@H](CCC(=O)O)NC(=O)[C@H](CC(C)C)NC(=O)[C@H](CC(C)C)NC(=O)[C@@H](NC(=O)[C@H](CO)NC(=O)[C@@H]1CCCN1C(=O)[C@H](CC(=O)O)NC(=O)[C@H](CO)NC(=O)[C@@H](NC(=O)[C@H](Cc1ccccc1)NC(=O)[C@@H](NC(=O)CNC(=O)[C@H](CCC(=O)O)NC(=O)C(C)(C)NC(=O)[C@@H](N)Cc1c[nH]cn1)[C@@H](C)O)[C@@H](C)O)C(C)C)C(=O)N[C@@H](CCC(N)=O)C(=O)N[C@@H](Cc1c[nH]c2ccccc12)C(=O)N[C@@H](CC(C)C)C(=O)N[C@H](C(N)=O)C(C)C
B4: SEQ ID NO: 142 (peptide)
peptide: HGEGTFTSDVSYLKEEA[Aib]LQRFLEHLV-NH2
modifications: not fully specified (residue 14); also: K14 lipidated with C20DA[γE][OEG][OEG]- or C18DA[γE][OEG][OEG]-
B5: SEQ ID NO: 140 (peptide)
peptide: H[Aib]EGTFTSDVSPLKEEA[Aib]LQRFLEHLV-NH2
modifications: not fully specified (residue 14); also: K14 lipidated with C20DA[γE][OEG][OEG]- or C18DA[γE][OEG][OEG]-
B6: SEQ ID NO: 14 (peptide)
peptide: H[Aib]EGTFTSDVSELKEEAAQQRFLEHLV-NH2
modifications: not fully specified (residue 14); also: K14 lipidated with C20DA[γE][OEG][OEG]- or C18DA[γE][OEG][OEG]-
B7: SEQ ID NO: 145 (peptide)
peptide: H[Aib]EGTFTSDVSHLKEEA[Aib]LQRFLEHLV-NH2
modifications: not fully specified (residue 14); also: K14 lipidated with C20DA[γE][OEG][OEG]- or C18DA[γE][OEG][OEG]-
B8: SEQ ID NO: 144 (peptide)
peptide: H[Aib]EGTFTSDVSYLKEEA[Aib]LQRFLEYLV-NH2
modifications: not fully specified (residue 14); also: K14 lipidated with C20DA[γE][OEG][OEG]- or C18DA[γE][OEG][OEG]-

Numbered stars: 1 amine (or outer) side, 2 acyl side, 3 side chain; on linkers, the order of the positions; unused ones are H or OH. Square brackets hold non-standard residues; d marks the D form. Side chains are listed from the residue outwards. Ends that are not written are not given here. * marks the point of attachment. C20 diacid = O=C(O)CCCCCCCCCCCCCCCCCCC(=O)*; γGlu = O=C(O)[C@H](CCC(=O)[*:2])N[*:1]; AEEA = NCCOCCOCC(=O)O; Aib = CC(C)(N)C(=O)O

The target in one assay is human GLP-1 receptor (hGLP1R) (human, UniProt P43220 24-463). Nature of the assay: cell-based or functional assay.
H[Aib]EGTFTSDVSYLKEEAALQRFLEHLV-NH2 (not fully specified (residue 14)) [SEQ ID NO: 137]: the “pEC50 hGLPR1” value was 11.1 -log M.
As to H[Aib]EGTFTSDVSYLKEEA[Aib]LQRFLEKLV-NH2 (not fully specified (residue 14)) [SEQ ID NO: 147], the “pEC50 hGLPR1” value is 11.3 -log M.
As to H[Aib]EGTFTSDVSYLKEEA[Aib]AQRFLEHLV-NH2 (not fully specified (residue 14)) [SEQ ID NO: 146], the “pEC50 hGLPR1” value is 11.6 -log M.
Same read-out and setting: in the case of B1 it was 7.8 -log M; in that of H[Aib]EGTFTSDVSVLKEEA[Aib]LQRFLEHLV-NH2 (not fully specified (residue 14)) [SEQ ID NO: 138], 10.9 -log M.
Take B2: the “pEC50 hGLPR1” value is 11.4 -log M.
The same measure, in the same setting: in the case of H[Aib]EGTFTSDVSYLKEEA[Aib]SQRFLEHLV-NH2 (not fully specified (residue 14)) [SEQ ID NO: 134] it was 11.1 -log M.
In the case of H[Aib]EGTFTSDVSYLKEEA[Aib]NQRFLEHLV-NH2 (not fully specified (residue 14)) [SEQ ID NO: 131], the “pEC50 hGLPR1” value was 11.3 -log M.
As for H[Aib]EGTFTSDVSLLKEEA[Aib]LQRFLEHLV-NH2 (not fully specified (residue 14)) [SEQ ID NO: 149], the “pEC50 hGLPR1” value is 10.9 -log M.
On to H[Aib]EGTFTSDVSYLKEEA[Aib]LQRFLEFLV-NH2 (not fully specified (residue 14)) [SEQ ID NO: 133], for which the “pEC50 hGLPR1” value is 10.8 -log M.
B3: the “pEC50 hGLPR1” value is 8.1 -log M.
With B4, the “pEC50 hGLPR1” value is 10.9 -log M.
Turning to H[Aib]EGTFTSDVSYLKEEA[Aib]LQRWLEHLV-NH2 (not fully specified (residue 14)) [SEQ ID NO: 135], the “pEC50 hGLPR1” value is 11.3 -log M.
As to H[Aib]EGTFTSDVSYLKEEA[Aib]EQRFLEHLV-NH2 (not fully specified (residue 14)) [SEQ ID NO: 150], the “pEC50 hGLPR1” value was 11.3 -log M.
Consider H[Aib]EGTFTSDVSYLKEEA[Aib][Aib]QRFLEHLV-NH2 (not fully specified (residue 14)) [SEQ ID NO: 152], for which the “pEC50 hGLPR1” value was 10.9 -log M.
The same measure, in the same setting: with H[Aib]EGTFTSDVSRLK([AEEA-AEEA-γGlu-C20 diacid])EFAAAQRFLEHLV-NH2 [SEQ ID NO: 2] the figure was 10.1 -log M; with H[Aib]EGTFTSDVSYLKEEA[Aib]IQRFLEHLV-NH2 (not fully specified (residue 14)) [SEQ ID NO: 139], 11.2 -log M.
On the same count and under the same terms, in the case of H[Aib]EGTFTSDVSALKEEA[Aib]LQRFLEHLV-NH2 (not fully specified (residue 14)) [SEQ ID NO: 148] it was 10.8 -log M.
As to H[Aib]EGTFTSDVSYLKEEALLQRFLEHLV-NH2 (not fully specified (residue 14)) [SEQ ID NO: 132], the “pEC50 hGLPR1” value was 10.7 -log M.
As for B5, the “pEC50 hGLPR1” value is 8.9 -log M.
Same read-out and setting: with B6 the figure was 10.7 -log M.
For the molecule H[Aib]EGTFTSDVSYLKEEA[Aib]LQRFLEELV-NH2 (not fully specified (residue 14)) [SEQ ID NO: 151], the “pEC50 hGLPR1” value is 10.6 -log M.
In the case of H[Aib]EGTFTSDVSVLKE[Aib]AAAQRFLEHLV-NH2 (not fully specified (residue 14)) [SEQ ID NO: 15], the “pEC50 hGLPR1” value was 10.1 -log M.
Turning to B7, the “pEC50 hGLPR1” value is 11.1 -log M.
Take H[Aib]EGTFTSDVSYLWEEA[Aib]LQRFLEKLV-NH2 (not fully specified (residue 25)) [SEQ ID NO: 130]: the “pEC50 hGLPR1” value is 10.5 -log M.
Still for that read-out and setting: with H[Aib]EGTFTSDVSNLKEEA[Aib]LQRFLEHLV-NH2 (not fully specified (residue 14)) [SEQ ID NO: 136] the figure was 10.9 -log M; with B8, 10.8 -log M; with H[Aib]EGTFTSDVSYLYEEA[Aib]LQRFLEKLV-NH2 (not fully specified (residue 25)) [SEQ ID NO: 143], 11 -log M.

The target of the next assay is human secretin receptor (hSCTR) (human, UniProt P47872 23-440). As to the kind of experiment: cell-based or functional assay.
Sequence of human secretin receptor (hSCTR) (P47872 23-440): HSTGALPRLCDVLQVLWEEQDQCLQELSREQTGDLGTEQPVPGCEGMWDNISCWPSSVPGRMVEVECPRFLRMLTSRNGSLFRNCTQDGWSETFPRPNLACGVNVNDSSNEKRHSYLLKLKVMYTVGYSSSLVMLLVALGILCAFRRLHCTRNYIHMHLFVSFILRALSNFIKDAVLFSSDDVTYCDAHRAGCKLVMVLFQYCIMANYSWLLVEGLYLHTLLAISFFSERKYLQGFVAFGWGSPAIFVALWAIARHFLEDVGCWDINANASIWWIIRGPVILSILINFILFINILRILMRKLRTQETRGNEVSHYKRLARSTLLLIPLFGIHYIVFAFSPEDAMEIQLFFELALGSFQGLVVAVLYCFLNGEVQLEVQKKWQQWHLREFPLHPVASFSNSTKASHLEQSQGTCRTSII
Take H[Aib]EGTFTSDVSYLKEEAALQRFLEHLV-NH2 (not fully specified (residue 14)) [SEQ ID NO: 137]: the “pEC50 hSCTR” value is 7.1 -log M.
Turning to H[Aib]EGTFTSDVSYLKEEA[Aib]LQRFLEKLV-NH2 (not fully specified (residue 14)) [SEQ ID NO: 147], the “pEC50 hSCTR” value was 7.2 -log M.
For the molecule H[Aib]EGTFTSDVSYLKEEA[Aib]AQRFLEHLV-NH2 (not fully specified (residue 14)) [SEQ ID NO: 146], the “pEC50 hSCTR” value is 5.7 -log M.
Take B1: the “pEC50 hSCTR” value is 4.7 -log M.
Regarding H[Aib]EGTFTSDVSVLKEEA[Aib]LQRFLEHLV-NH2 (not fully specified (residue 14)) [SEQ ID NO: 138], the “pEC50 hSCTR” value was 7.5 -log M.
For B2, the “pEC50 hSCTR” value was 6.6 -log M.
Turning to H[Aib]EGTFTSDVSYLKEEA[Aib]SQRFLEHLV-NH2 (not fully specified (residue 14)) [SEQ ID NO: 134], the “pEC50 hSCTR” value was 5.6 -log M.
On to H[Aib]EGTFTSDVSYLKEEA[Aib]NQRFLEHLV-NH2 (not fully specified (residue 14)) [SEQ ID NO: 131], for which the “pEC50 hSCTR” value was 5.3 -log M.
Take H[Aib]EGTFTSDVSLLKEEA[Aib]LQRFLEHLV-NH2 (not fully specified (residue 14)) [SEQ ID NO: 149]: the “pEC50 hSCTR” value is 7.5 -log M.
Take H[Aib]EGTFTSDVSYLKEEA[Aib]LQRFLEFLV-NH2 (not fully specified (residue 14)) [SEQ ID NO: 133]: the “pEC50 hSCTR” value was 6.4 -log M.
Same read-out and setting: in the case of B3 it was 5 -log M; in that of B4, 4.7 -log M; in that of H[Aib]EGTFTSDVSYLKEEA[Aib]LQRWLEHLV-NH2 (not fully specified (residue 14)) [SEQ ID NO: 135], 6.9 -log M.
Still for that read-out and setting: in the case of H[Aib]EGTFTSDVSYLKEEA[Aib]EQRFLEHLV-NH2 (not fully specified (residue 14)) [SEQ ID NO: 150] it was 5.5 -log M; in that of H[Aib]EGTFTSDVSYLKEEA[Aib][Aib]QRFLEHLV-NH2 (not fully specified (residue 14)) [SEQ ID NO: 152], 5.4 -log M.
Regarding H[Aib]EGTFTSDVSRLK([AEEA-AEEA-γGlu-C20 diacid])EFAAAQRFLEHLV-NH2 [SEQ ID NO: 2], the “pEC50 hSCTR” value is 6.3 -log M.
On to H[Aib]EGTFTSDVSYLKEEA[Aib]IQRFLEHLV-NH2 (not fully specified (residue 14)) [SEQ ID NO: 139], for which the “pEC50 hSCTR” value is 6.9 -log M.
On to H[Aib]EGTFTSDVSALKEEA[Aib]LQRFLEHLV-NH2 (not fully specified (residue 14)) [SEQ ID NO: 148], for which the “pEC50 hSCTR” value is 7.2 -log M.
Same read-out and setting: in the case of H[Aib]EGTFTSDVSYLKEEALLQRFLEHLV-NH2 (not fully specified (residue 14)) [SEQ ID NO: 132] it was 6.7 -log M; in that of B5, 4.7 -log M.
On to B6, for which the “pEC50 hSCTR” value is 6.7 -log M.
As for H[Aib]EGTFTSDVSYLKEEA[Aib]LQRFLEELV-NH2 (not fully specified (residue 14)) [SEQ ID NO: 151], the “pEC50 hSCTR” value is 6.9 -log M.
As to H[Aib]EGTFTSDVSVLKE[Aib]AAAQRFLEHLV-NH2 (not fully specified (residue 14)) [SEQ ID NO: 15], the “pEC50 hSCTR” value was 6.5 -log M.
In the case of B7, the “pEC50 hSCTR” value was 7.2 -log M.
Consider H[Aib]EGTFTSDVSYLWEEA[Aib]LQRFLEKLV-NH2 (not fully specified (residue 25)) [SEQ ID NO: 130], for which the “pEC50 hSCTR” value was 6 -log M.
Still for that read-out and setting: in the case of H[Aib]EGTFTSDVSNLKEEA[Aib]LQRFLEHLV-NH2 (not fully specified (residue 14)) [SEQ ID NO: 136] it was 7.9 -log M; in that of B8, 6.6 -log M; in that of H[Aib]EGTFTSDVSYLYEEA[Aib]LQRFLEKLV-NH2 (not fully specified (residue 25)) [SEQ ID NO: 143], 6.1 -log M.
